Measurements reported in US20250042994A1 (HAINAN SIMCERE ZAIMING PHARMACEUTICAL, published 2025).

T1: human CD19 on Raji cells (human, UniProt P15391 20-556)
T1 construct: whole, on cells
T1 sequence (looked up): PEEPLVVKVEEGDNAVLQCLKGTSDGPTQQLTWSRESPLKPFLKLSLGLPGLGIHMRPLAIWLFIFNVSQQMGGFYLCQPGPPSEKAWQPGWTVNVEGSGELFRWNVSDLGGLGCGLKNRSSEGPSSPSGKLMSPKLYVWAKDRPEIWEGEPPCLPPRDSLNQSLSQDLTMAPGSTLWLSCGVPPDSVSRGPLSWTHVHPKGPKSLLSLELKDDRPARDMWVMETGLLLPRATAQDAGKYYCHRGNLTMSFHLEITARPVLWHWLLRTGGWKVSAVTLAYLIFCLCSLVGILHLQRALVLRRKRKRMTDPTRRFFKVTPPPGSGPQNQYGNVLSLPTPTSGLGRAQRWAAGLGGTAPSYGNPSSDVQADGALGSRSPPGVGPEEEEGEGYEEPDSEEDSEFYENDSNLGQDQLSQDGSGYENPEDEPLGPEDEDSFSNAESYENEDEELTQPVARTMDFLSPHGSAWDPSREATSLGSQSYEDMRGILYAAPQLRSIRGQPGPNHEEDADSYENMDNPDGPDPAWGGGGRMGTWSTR

T2: human CD19 on CHO-K1-human CD19 cells (human, UniProt P15391 20-556)
T2 construct: whole, on cells; also called CHO-K1-human CD19-2C8
T2 sequence (looked up): T1 sequence (looked up)

T3: cynomolgus monkey CD19 on peripheral blood B cells (cynomolgus monkey (Macaca fascicularis), UniProt A0A2K5W8L9 20-557)
T3 construct: whole, on cells; also called cynomolgus monkey B cells
T3 sequence: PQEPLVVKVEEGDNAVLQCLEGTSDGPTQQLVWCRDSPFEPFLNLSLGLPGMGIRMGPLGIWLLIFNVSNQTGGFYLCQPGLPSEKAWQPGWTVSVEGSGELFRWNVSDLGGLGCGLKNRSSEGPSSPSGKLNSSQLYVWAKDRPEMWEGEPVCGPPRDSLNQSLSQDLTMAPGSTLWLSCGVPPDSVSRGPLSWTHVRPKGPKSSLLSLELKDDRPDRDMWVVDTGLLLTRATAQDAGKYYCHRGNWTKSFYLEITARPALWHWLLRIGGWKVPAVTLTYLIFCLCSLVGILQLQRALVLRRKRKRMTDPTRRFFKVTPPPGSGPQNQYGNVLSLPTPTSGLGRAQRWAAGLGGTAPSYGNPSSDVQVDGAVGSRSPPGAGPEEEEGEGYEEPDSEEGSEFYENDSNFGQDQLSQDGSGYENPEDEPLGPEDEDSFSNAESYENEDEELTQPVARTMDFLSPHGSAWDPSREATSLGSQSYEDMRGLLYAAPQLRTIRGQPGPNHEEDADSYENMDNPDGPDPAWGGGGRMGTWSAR

T4: human CD19 exon1-3-His tag protein (human, UniProt P15391 20-186, limits assumed)
T4 construct: membrane-distal part of the extracellular region, made in HEK293E cells; not shown: His tag
T4 sequence (looked up): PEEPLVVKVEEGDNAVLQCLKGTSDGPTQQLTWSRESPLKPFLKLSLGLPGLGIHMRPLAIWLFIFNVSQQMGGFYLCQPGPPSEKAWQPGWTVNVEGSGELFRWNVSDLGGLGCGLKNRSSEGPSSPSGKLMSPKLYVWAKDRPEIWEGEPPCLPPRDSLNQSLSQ

T5: Human CD19-his protein (human, UniProt P15391 20-291)
T5 construct: bought protein; also called recombinant human CD19-His; CD19 full-length protein; not shown: His tag
T5 sequence (looked up): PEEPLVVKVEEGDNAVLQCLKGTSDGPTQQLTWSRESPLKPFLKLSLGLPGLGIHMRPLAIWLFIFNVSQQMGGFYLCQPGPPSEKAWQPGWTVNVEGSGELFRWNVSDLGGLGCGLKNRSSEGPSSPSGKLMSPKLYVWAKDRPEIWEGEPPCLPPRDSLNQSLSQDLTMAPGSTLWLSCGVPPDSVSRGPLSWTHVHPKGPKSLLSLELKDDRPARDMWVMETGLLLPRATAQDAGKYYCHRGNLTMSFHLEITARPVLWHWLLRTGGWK

B1: F5.11.2 (antibody, human IgG1, V domains shown)
VH: EVQLVESGGDLVKPGGSLKLSCAASGFTFSSYGMSWVRQTPDKRLEWVATISHGGSYTHYPDSVKGRFTISRDNAKNTLYLQMNSLKSEDTAMYYCVRLPITTVEAPYFFDYWGQGTTLTVSS
VL: DIQMTQTTSSLSASLGDRVTISCRASQDIRNYLNWYQQKPDGTVKLLIYYTSILHSGVPSRFSGSGSGTDYSLTINNLEQEDVATYFCQQGNTLYTFGGGTEVELR
notes: human-murine chimeric antibody, human IgG1
B2: F3.77.6 (antibody, human IgG1, V domains shown)
VH: EFQLQQSGPELVKPGASVKISCKASGYSFTDYNMNWVKQSNGKSLEWIGTINPNYITSYNQKFKGKATLTVDQSSSTAYMQLNSLTSEDSAVYYCAGDYKGYWGQGTTLTVSS
VL: not shown
notes: as for B1
B3: F3.118.14 (antibody, human IgG1, V domains shown)
VH: QVQLQQSGAELVRPGASVTLSCKASGYTFPDYEIHWVKQTPVHGLEWIGAIDPETGGIGYNQKFTGKAMLTADKSSSTAYMELRSLTSEDSAVYFCTRNYGSRWGQGSTLTVSS
VL: not shown
notes: as for B1
B4: F3.118.14 (antibody, human IgG1, V domains shown)
VH: B3 VH
VL: not shown
notes: human-murine chimeric antibody, human IgG1 constant
B5: F3.124.7 (antibody, human IgG1, V domains shown)
VH: EVQLQQSGPVLVKPGASVKMSCKASGYTFTDYYMNWVKQRHGKSLEWIGISNPYNGGTSYNQKFKDKATLTVDKSSSTAYMELNSLTSEDSAVYYCAREGGTAQPTSGMDYWGQGTSVTVSS
VL: NIMMTQSPSSLAVSAGEKVTMSCKSSQSVLYSSNQKNYLAWYQQKPGQSPKLLIYWASTRESGVPDRFTGSGSGTDFTLTISSVQPEDPAVYYCHQYRSSYTFGGGTKLEIK
notes: as for B4
B6: F3.77.6 (antibody, human IgG1, V domains shown)
VH: B2 VH
VL: not shown
notes: as for B4

Tests used:
human CD19 on Raji cells = biological target: T1, human CD19 on Raji cells; assay: FACS on Raji cells
[1] = biological target: T2, human CD19 on CHO-K1-human CD19 cells; assay: FACS on CHO-K1-human CD19 cells
monkey CD19 protein [2] = biological target: T6, monkey CD19 protein (monkey); assay: ELISA, coated monkey CD19 protein
T6 construct: also called monkey CD19-His protein
Experimental: (§1) Human CD19-his protein (purchased from ACROBiosystems, catalog number: CD9-H52H2) was diluted with PBS to a final concentration of 4 μg/mL, and then added to a 96-well ELISA plate at 100 μl/well. The plate was sealed with a plastic film and incubated overnight at 4° C., the plate was washed 2 times with PBS the next day, and then a blocking solution [PBS+2% (w/w) BSA] was added for blocking at room temperature for 2 h. The blocking solution was poured off, and 100 nM gradiently diluted CD19 chimeric antibody or control antibody was added at 50 μl/well. After incubation at 37° C. for 2 h, the plate was washed 3 times with PBS. […] TMB substrate was added at 50 μl/well, and incubated at room temperature for 10 min, and then a stop solution (1.0 N HCl) was added at 50 μl/well. The OD450 nm values were read by an ELISA microplate reader (Multimode Plate Reader, EnSight, purchased from Perkin Elmer).
(§2) In order to detect the species cross-binding activity of the chimeric antibodies, an ELISA plate was coated with commercial murine CD19 (ACROBiosystems, catalog number: 50510-M08H) and monkey CD19 (ACROBiosystems, catalog number: 90051-C08H), respectively, and the ELISA detection was performed according to the method in example 5.1.

[3] = biological target: T7, monkey CD19 on HEK293T-monkey CD19 cells (monkey); assay: FACS on HEK293T-monkey CD19 cells
T7 construct: whole, on cells
Outline: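 Cells blocked in PBS + 2% (w/w) BSA at 2×10⁶ cells/ml, then incubated with test antibody on ice for 2 h. After washes, binding read by flow cytometry as mean fluorescence intensity (MFI). EC50 from fitted MFI curves. Parental HEK293T cells run by the same method.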

[4] = biological target: T3, cynomolgus monkey CD19 on peripheral …; assay: FACS, cynomolgus PBMC, CD20+ B cells
monkey CD19 protein [5] = biological target: T6, monkey CD19 protein; assay: ELISA on coated monkey CD19-His
Experimental: as §1, §2

[6] = biological target: T4, human CD19 exon1-3-His tag protein; assay: ELISA on coated human CD19 exon 1-3-His
monkey CD19-His protein = biological target: T8, monkey CD19-His protein (monkey); assay: SPR Biacore, method of example 7.1, monkey CD19-His
T8 construct: bought protein; also called monkey CD19 protein
Experimental: A sample buffer and a running buffer were HBS-EP+ (10 mM HEPES, 150 mM NaCl, 3 mM EDTA and 0.05% surfactant P20) (GE Healthcare; BR-1006-69). The flow-through cell was set to 25° C. The sample block was set to 16° C. Both were pretreated with the running buffer. In each cycle, an antibody to be detected was first captured with a Protein A chip, and then a single concentration of CD19 antigen protein was injected. The binding and dissociation processes of the antibody and the antigen protein were recorded, and finally Glycine pH 1.5 (GE Healthcare; BR-1003-54) was used to complete chip regeneration. The binding was measured by injecting different concentrations of recombinant human CD19-His proteins in a solution for 240 s with a flow rate of 30 μl/min. The concentration started from 200 nM (see the detailed results for the actual concentration in the test) and was diluted at 1:1, making a total of 5 concentrations. The dissociation phase was monitored for up to 600 s and was triggered by switching from sample solution to running buffer. The surface was regenerated by washing with a 10 mM glycine solution (pH 1.5) for 30 s at a flow rate of 30 μl/min. Bulk refractive index difference was corrected by subtracting the response obtained from the goat anti-human Fc surface. Blank injection was also subtracted (=double reference). For calculation of apparent KD and other kinetic parameters, Langmuir 1:1 model was used.
According to the method in example 7.1, the affinity of the chimeric antibodies to monkey CD19 (ACROBiosystems, catalog number: 90051-C08H) protein was determined.

Human CD19-his protein = biological target: T5, Human CD19-his protein; assay: SPR Biacore, Ab captured on Protein A, CD19-His analyte
Outline: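 Antibodies were captured on a Protein A chip at 25 °C in HBS-EP+. Human CD19-His was injected for 240 s at 30 μl/min at 5 concentrations from 200 nM (1:1 dilutions), with dissociation up to 600 s. Data were double-referenced and fitted to a Langmuir 1:1 model for apparent KD.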

Row | Binder | EC50 (human CD19 on Raji cells) [nM] | Maximum mean fluorescence intensity (human CD19 on Raji cells) | EC50 [1] [nM] | Maximum mean fluorescence intensity [1] | OD450 at 0.0001 nM (monkey CD19 protein [2]) [OD450] | OD450 at 0.001 nM (monkey CD19 protein [2]) [OD450] | OD450 at 0.01 nM (monkey CD19 protein [2]) [OD450] | OD450 at 0.10 nM (monkey CD19 protein [2]) [OD450] | OD450 at 1.00 nM (monkey CD19 protein [2]) [OD450] | OD450 at 10 nM (monkey CD19 protein [2]) [OD450] | OD450 at 100 nM (monkey CD19 protein [2]) [OD450] | EC50 [3] [nM] | Maximum mean fluorescence intensity [3] | Proportion of chimeric antibody positive cells to B cells (%) at 1 nM [4] [%] | Proportion of chimeric antibody positive cells to B cells (%) at 10 nM [4] [%] | Proportion of chimeric antibody positive cells to B cells (%) at 100 nM [4] [%] | EC50 (read off the curve) (monkey CD19 protein [5]) [nM] | EC50 (read off the curve) [6] [nM] | Kd (monkey CD19-His protein) [nM] | koff (monkey CD19-His protein) [s⁻¹] | also measured
1 | B1 | 23.4 | 16600 | 14.7 | 46600 | 0.06 | 0.06 | 0.06 | 0.12 | 0.71 | 1.25 | 1.16 | 13 | 80600 | 12 | 34 | 76 | ~0.8 |  |  |  | 
2 | B2 | 1.62 | 27400 | 3.13 | 4990 | 0.07 | 0.11 | 0.38 | 1.48 | 2.27 | 2.51 | 2.49 | 6.45 | 179000 | 4 | 18 | 56 | ~0.07 |  |  |  | 
3 | B3 | 8.38 | 25900 | 18 | 3380 | 0.07 | 0.1 | 0.24 | 1.11 | 2.05 | 2.4 | 2.75 | 9.64 | 156000 | 6 | 25 | 79 | ~0.2 |  |  |  | 
4 | B4 |  |  |  |  |  |  |  |  |  |  |  |  |  |  |  |  |  | ~0.3 | 0.00583 | 9.72e-08 | kon (monkey CD19-His protein): 16700 M⁻¹ s⁻¹; Kd (Human CD19-his protein): 6.05 nM; koff (Human CD19-his protein): 0.000326 s⁻¹; kon (Human CD19-his protein): 53900 M⁻¹ s⁻¹
5 | B5 |  |  |  |  |  |  |  |  |  |  |  |  |  |  |  |  |  | ~0.03 | 0.803 | 5.62e-05 | kon (monkey CD19-His protein): 70000 M⁻¹ s⁻¹; Kd (Human CD19-his protein): 1.99 nM; koff (Human CD19-his protein): 0.000138 s⁻¹; kon (Human CD19-his protein): 69300 M⁻¹ s⁻¹
6 | B6 |  |  |  |  |  |  |  |  |  |  |  |  |  |  |  |  |  | ~0.1 | 0.00759 | 1.4e-07 | kon (monkey CD19-His protein): 18400 M⁻¹ s⁻¹; Kd (Human CD19-his protein): 2 nM; koff (Human CD19-his protein): 0.000169 s⁻¹; kon (Human CD19-his protein): 84400 M⁻¹ s⁻¹
